From PMC7949154, “Heat shock transcription factor 1 is SUMOylated in the activated trimeric state” (The Journal of Biological Chemistry, 2020) come the findings set out here.

In data set [1] the target is T1, Heat shock transcription factor 1 (Hsf1), wildtype (human), Q00613.
T1 chain: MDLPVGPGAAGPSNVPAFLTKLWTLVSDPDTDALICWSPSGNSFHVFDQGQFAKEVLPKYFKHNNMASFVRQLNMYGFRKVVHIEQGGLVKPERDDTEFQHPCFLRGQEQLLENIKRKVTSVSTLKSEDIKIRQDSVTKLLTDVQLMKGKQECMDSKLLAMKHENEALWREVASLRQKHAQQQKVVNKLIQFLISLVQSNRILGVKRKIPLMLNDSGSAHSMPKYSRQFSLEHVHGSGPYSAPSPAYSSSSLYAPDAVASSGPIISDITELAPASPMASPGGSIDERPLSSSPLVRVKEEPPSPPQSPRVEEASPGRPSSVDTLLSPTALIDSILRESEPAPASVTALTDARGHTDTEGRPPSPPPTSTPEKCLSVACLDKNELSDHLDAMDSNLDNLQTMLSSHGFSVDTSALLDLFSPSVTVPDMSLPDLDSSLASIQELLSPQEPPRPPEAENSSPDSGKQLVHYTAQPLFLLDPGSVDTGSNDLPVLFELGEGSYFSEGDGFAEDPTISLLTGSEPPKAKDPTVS
Description: native gel or EMSA; Blue native PAGE (8% gel, on ice) of monomeric Hsf1 and of Hsf1 monomers heat shocked at 42 °C for 10 min; samples taken at 0 and 3 h of incubation at 25 °C (Figure S1). The note with it: remark: other sources report otherwise. Background: A gel shift assay detects complexes by their altered migration in electrophoresis.

Data set [2] deals with the molecule itself. Described as above.

The term stoichiometry N denotes the number of molecules, sites or subunits per partner or assembly.

B1: Heat shock transcription factor 1 (Hsf1), wildtype, Q00613 1-529 (natural protein)
chain: MDLPVGPGAAGPSNVPAFLTKLWTLVSDPDTDALICWSPSGNSFHVFDQGQFAKEVLPKYFKHNNMASFVRQLNMYGFRKVVHIEQGGLVKPERDDTEFQHPCFLRGQEQLLENIKRKVTSVSTLKSEDIKIRQDSVTKLLTDVQLMKGKQECMDSKLLAMKHENEALWREVASLRQKHAQQQKVVNKLIQFLISLVQSNRILGVKRKIPLMLNDSGSAHSMPKYSRQFSLEHVHGSGPYSAPSPAYSSSSLYAPDAVASSGPIISDITELAPASPMASPGGSIDERPLSSSPLVRVKEEPPSPPQSPRVEEASPGRPSSVDTLLSPTALIDSILRESEPAPASVTALTDARGHTDTEGRPPSPPPTSTPEKCLSVACLDKNELSDHLDAMDSNLDNLQTMLSSHGFSVDTSALLDLFSPSVTVPDMSLPDLDSSLASIQELLSPQEPPRPPEAENSSPDSGKQLVHYTAQPLFLLDPGSVDTGSNDLPVLFELGEGSYFSEGDGFAEDPTISLLTGSEPPKAKDPTVS
For the molecule B1, the stoichiometry N in data set [1] came out at 3.

B2: Hsf1–K298R,S303E,S307E (natural protein, human, UniProt Q00613 1-529, looked up)
chain: MDLPVGPGAAGPSNVPAFLTKLWTLVSDPDTDALICWSPSGNSFHVFDQGQFAKEVLPKYFKHNNMASFVRQLNMYGFRKVVHIEQGGLVKPERDDTEFQHPCFLRGQEQLLENIKRKVTSVSTLKSEDIKIRQDSVTKLLTDVQLMKGKQECMDSKLLAMKHENEALWREVASLRQKHAQQQKVVNKLIQFLISLVQSNRILGVKRKIPLMLNDSGSAHSMPKYSRQFSLEHVHGSGPYSAPSPAYSSSSLYAPDAVASSGPIISDITELAPASPMASPGGSIDERPLSSSPLVRVREEPPEPPQEPRVEEASPGRPSSVDTLLSPTALIDSILRESEPAPASVTALTDARGHTDTEGRPPSPPPTSTPEKCLSVACLDKNELSDHLDAMDSNLDNLQTMLSSHGFSVDTSALLDLFSPSVTVPDMSLPDLDSSLASIQELLSPQEPPRPPEAENSSPDSGKQLVHYTAQPLFLLDPGSVDTGSNDLPVLFELGEGSYFSEGDGFAEDPTISLLTGSEPPKAKDPTVS
notes: Heat shock transcription factor 1 (Hsf1), human, full length, K298R in the S303E,S307E variant; also called REE; EE,K298R; source: E. coli BL21(DE3) Rosetta, purified (Ni-IDA, tag cleaved with tobacco etch virus protease, SEC)
Turning to B2, in data set [2], the “stoichiometry N” value amounted to 3.

B3: Hsf1–S303E,S307E (double phosphomimetic variant) (natural protein, human, UniProt Q00613 1-529, looked up)
chain: MDLPVGPGAAGPSNVPAFLTKLWTLVSDPDTDALICWSPSGNSFHVFDQGQFAKEVLPKYFKHNNMASFVRQLNMYGFRKVVHIEQGGLVKPERDDTEFQHPCFLRGQEQLLENIKRKVTSVSTLKSEDIKIRQDSVTKLLTDVQLMKGKQECMDSKLLAMKHENEALWREVASLRQKHAQQQKVVNKLIQFLISLVQSNRILGVKRKIPLMLNDSGSAHSMPKYSRQFSLEHVHGSGPYSAPSPAYSSSSLYAPDAVASSGPIISDITELAPASPMASPGGSIDERPLSSSPLVRVKEEPPEPPQEPRVEEASPGRPSSVDTLLSPTALIDSILRESEPAPASVTALTDARGHTDTEGRPPSPPPTSTPEKCLSVACLDKNELSDHLDAMDSNLDNLQTMLSSHGFSVDTSALLDLFSPSVTVPDMSLPDLDSSLASIQELLSPQEPPRPPEAENSSPDSGKQLVHYTAQPLFLLDPGSVDTGSNDLPVLFELGEGSYFSEGDGFAEDPTISLLTGSEPPKAKDPTVS
notes: Heat shock transcription factor 1 (Hsf1), human, full length, phosphomimetic S303E,S307E; theoretical mass 57,270.43 Da; also called EE; source: E. coli BL21(DE3) Rosetta, purified (Ni-IDA, tag cleaved with tobacco etch virus protease, SEC; monomeric and trimeric fractions)
Consider B3, for which the “stoichiometry N” value in data set [2] was found to be 3.
